Measured values published in US20100081624A1, “SELECTIVE PEPTIDES THAT INHIBIT THE BIOLOGICAL ACTIVITY OF CALCINEURIN” (Consejo Superior de Investigaciones Cientficas, priority 2005, published 2010).
No end group written: not given here.

Tests used:
human CN = target: T1, human CN (Homo sapiens, UniProt P63098+Q08209); experiment: Phosphatase activity assay of CN on pNPP; assay type: biochemical; details: pNPP substrate; 0.01 mM
T1 construct: made in house; host or cells: bacteria
Description: Phosphatase Activity Assay of CN on pNPP (Paranitrophenylphosphate).
The quantity of the product of the enzymatic reaction at basic pH (paranitrophenolate=PNP) was measured by absorbance at 405 nm, converting this numerical value to a concentration by means of interpolation from a straight-line PNP pattern.

[1] = test system: nuclear translocation of NFATc2 in HeLa cells; experiment: Subcellular localisation of NFATc2 in transfected HeLa cells (immunofluorescence); assay type: cell-based; details: HeLa co-transfected with HA-NFATc2; calcium ionophore 30 min, FIG. 8B
Description: The HeLa cells were transfected as described in the previous section using 1.2 μg of the GFP-peptide expression plasmids with 40 ng of pEF-BOS HA-NFATc2. Two hours before the stimulation, the culture medium was replaced with DMEM+1% FBS. After stimulating during 30 min. with calcium ionophore A23187 (1 μm) and CaCl2 (3 mM), the cells were fixed at ambient temperature during 10 min. with a 10% solution of formaldehyde in PBS containing 4% saccharose. Subsequently, they were washed three times with PBS and were permeabilised at ambient temperature during 10 min. with a solution of PBS with 0.25% of Triton X-100. The cells were subsequently incubated during 20 min. with a blocking buffer (10% BSA in PBS) and subsequently with a 1:500 solution of the 12CA5 antibody (anti-HA) during one hour. The subcellular localisation of the NFATS was detected using a fluorescence microscope (Axiovert-200, Zeiss) using a mouse anti-IgG conjugated with the Alexa 594 fluorochrome (Molecular Probes) as a secondary antibody. The percentage of cells with nuclear or cytosolic distribution of NFAT was calculated using not less than 130 positive cells per transfection.

[2] = test system: NFATc2 dephosphorylation in HeLa cells; experiment: NFATc2 dephosphorylation in transfected HeLa cells (Western blot); assay type: cell-based; details: HeLa co-transfected with HA-NFATc2; PMA + calcium ionophore 1 hour, FIG. 8A
Description: The HeLa cells were cultivated in Dulbecco medium modified by Eagle (DMEM) (Gibco) completed with 10% bovine foetal serum (FBS) (Sigma). The day prior to transfection, the cells were seeded in 6-well plates in order to reach an 80% confluence at the moment of transfection. The cells were transfected with 18 ng of pEF-BOS HA-NFATc2 plus 1.1 μg of the GFP-peptide plasmids with 4 μl of Plus reagent plus 6 μl of Lipofectamine reagent (Invitrogen) for 3 hours in 1 ml of OPTIMEM medium (Gibco). By means of flow cytometry, the transfection efficiency and the percentage of cells which expressed GFP were quantified. Similar transfection efficiencies were obtained for the different constructs and in independent experiments.
Twenty-four hours after the transfection, the HeLa culture medium was replaced by DMEM+1% FBS. After a further two hours, the cells were stimulated during 1 hour using 20 ng/ml of PMA (phorbol 12 myristrate 13 acetate) (Sigma) plus 1 μM of calcium ionophore A23187 (Sigma) and 3 mM of CaCl2. […] After three washes with PBS-T and one additional wash with H2O, the antibody bound to the membranes was detected by means of the ECL system (Amersham Biosciences).

CN (Calcineurin) = target: T2, CN (Calcineurin) (UniProt P48452+P63098); experiment: Pull-down of CN by GST-peptide fusion proteins (FIG. 3); assay type: binding; details: Western blot
T2 construct: purchased Sigma
Description: (§1) The GST fusion proteins were expressed in the protease-deficient strain of E. coli BL2(DE3). They were purified using the glutathione (GSH)-Sepharose B beads reagent (Amersham Biosciences). The binding of CN to these GST fusion proteins was used to carry out pull-down tests, which were performed as explained below. A variable amount of the beads which contained the GST fusion proteins fused to the regulatory NFAT domains (1-2 μg) or to the peptides (10-30 μg). These were washed twice with the binding buffer (20 mM Tris pH 8, 100 mM NaCl, 1.5 mM CaCl2, 6 mM MgCl2, 1 mM PMSF, 1 μm DTT, 1 μg/ml of aprotinine, 1 μg/ml of pepstatin, 100 μM of benzamidine and 0.2% of Triton X-100) and were subsequently incubated during 30 min. in a rotary shaker at 4° C. with a solution of 20 nM of Calcineurin (Sigma) plus 600 nM of Calmodulin (Sigma) in a binding buffer with or without the corresponding peptide. Subsequently, the samples were centrifuged briefly at 4° C. Laemmli buffer was added to the supernatants (unbound fraction), which were set aside for later analysis. […] The Calcineurin was detected by Western blot using an anti-CnA monoclonal mouse antibody (clone G182-1847, PharMingen). Where indicated, the amount of CN bound to the GST fusion proteins was quantified by densitometry using the Quantity One program (BIO-RAD).

[3] = target: T3, CN-NFATc2 interaction (GST-NFATc2) (Homo sapiens, UniProt P63098+Q08209); experiment: In vitro competition of CN binding to GST-NFATc2 by synthetic peptides
T3 construct: purchased Sigma
Description: The GST fusion proteins were expressed in the protease-deficient strain of E. coli BL2(DE3). They were purified using the glutathione (GSH)-Sepharose B beads reagent (Amersham Biosciences). The binding of CN to these GST fusion proteins was used to carry out pull-down tests, which were performed as explained below. A variable amount of the beads which contained the GST fusion proteins fused to the regulatory NFAT domains (1-2 μg) or to the peptides (10-30 μg). These were washed twice with the binding buffer (20 mM Tris pH 8, 100 mM NaCl, 1.5 mM CaCl2, 6 mM MgCl2, 1 mM PMSF, 1 μm DTT, 1 μg/ml of aprotinine, 1 μg/ml of pepstatin, 100 μM of benzamidine and 0.2% of Triton X-100) and were subsequently incubated during 30 min. in a rotary shaker at 4° C. with a solution of 20 nM of Calcineurin (Sigma) plus 600 nM of Calmodulin (Sigma) in a binding buffer with or without the corresponding peptide. Subsequently, the samples were centrifuged briefly at 4° C. Laemmli buffer was added to the supernatants (unbound fraction), which were set aside for later analysis. The beads were washed five times with cold, recently prepared binding buffer and Laemmli buffer was added; the samples were boiled to separate the bound proteins (bound fraction). The bound and unbound fractions were loaded onto 10% SDS-polyacrylamide gels and were separated by electrophoresis under reducing conditions. The Calcineurin was detected by Western blot using an anti-CnA monoclonal mouse antibody (clone G182-1847, PharMingen). Where indicated, the amount of CN bound to the GST fusion proteins was quantified by densitometry using the Quantity One program (BIO-RAD).

[4] = target: T4, CN-NFATc1 interaction (GST-NFATc1) (Homo sapiens, UniProt P63098+Q08209); experiment: In vitro competition of CN binding to GST-NFATc1 by synthetic peptides
T4 construct: purchased Sigma
Description: as §1

[5] = target: T5, CN (Calcineurin) phosphatase activity on RII phosphopeptide (Homo sapiens, UniProt P63098+Q08209); experiment: Phosphatase activity assay of CN on RII substrate; assay type: biochemical; details: in vitro, FIG. 9
T5 construct: purchased Biomol
Description: The effect of the peptides mentioned (Example 7, FIG. 9) on the enzymatic activity of CN on the RII peptide was analysed using the “Biomol Green Calcineurin” assay kit by Biomol in accordance with the manufacturer's instructions. The combination of CsA (Sandoz) plus cyclophilin (CyP) (Sigma) was used to inhibit Calcineurin activity in vitro.

[6] = target: T6, GST-LxVPc1-CN interaction (Homo sapiens, UniProt P63098+Q08209); experiment: Cross-competition of GST-LxVPc1-CN interaction (FIG. 7); assay type: binding; details: free competitor peptide, VIVIT 12 μM
T6 construct: purchased Sigma
Description: as §1

[7] = summary of LxVP and PxIxIT peptides

T1 sequence (P63098 whole entry, other chains not shown): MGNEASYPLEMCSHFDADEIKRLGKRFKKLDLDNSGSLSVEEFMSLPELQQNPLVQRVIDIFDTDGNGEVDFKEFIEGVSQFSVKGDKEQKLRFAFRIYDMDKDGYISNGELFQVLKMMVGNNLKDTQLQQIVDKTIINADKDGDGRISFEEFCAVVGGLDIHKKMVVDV

For “CypA: cyclophilin A, immunophilin, used separately as negative control”, the “% CN activity” value (human CN) was 103.3 ± 7.1%.
For “GFP-LxVPc1: GFP fusion protein with the LxVP peptide of NFATc1, expressed in HeLa cells”, the “cells with cytosolic NFATc2 staining” value [1] was 77% and the “effect on induced NFATc2 dephosphorylation” value [2] was “blocked induced NFATc2 dephosphorylation”.
With “GFP-LxVPc2: GFP fusion protein with the LxVP peptide of NFATc2 (SILLVPPTWPKPLVP; also: GFP fusion protein)” the “effect on induced NFATc2 dephosphorylation” value [2] was “had no effect”.
For “GST-LxVPc2: GST protein fused with the LxVP motif of NFATc2 (SILLVPPTWPKPLVP; also: fused to GST protein)”, the “amount of CN bound to GST-peptide fusion protein” value (CN (Calcineurin)) was “incapable of binding CN”.
“LxVPc2: NFATc2-specific LxVP peptide (SILLVPPTWPKPLVP)” was tested, and the “competition of CN binding to GST-NFATc2” value ([3]; 100 μM peptide, FIG. 4B) was “incapable of affecting the binding”, the “competition of CN binding to GST-NFATc2” value ([3]; competitor peptides at 32 μM or 200 μM, FIG. 4A) was “incapable of competing the binding of NFATc2 to CN” and the “competition of CN binding to GST-NFATc2” value ([3]; concentrations as high as 300 μM, FIG. 4B) was “partial inhibition”. For the same substance, the “competition of in vitro interaction of CN with NFATc2, overall” value [3, 7] was “did not efficiently compete”, the “competition of GST-NFATc1 interaction with CN” value ([4]; 32 μM peptide, FIG. 6A) was “not capable of altering the NFAT-CN binding” and the “competition of in vitro interaction of CN with NFATc1, overall” value [4, 7] was “did not efficiently compete”.
With “PxIxITc1: PxIxIT peptide corresponding to NFATc1 (ALESPRIEITSCLGL)” the “competition of CN binding to GST-NFATc2” value ([3]; 100 μM peptide, FIG. 4B) was “efficiently blocked the interaction of CN with NFATc2”.
With “PxIxITc2: PxIxIT peptide corresponding to NFATc2 (SGLSPRIEITPSHEL)” the “effect on phosphatase activity of CN on RII peptide” value [5] was “failed in the inhibition of phosphatase activity”, the “competition of binding of CN to GST-LxVPc1” value [6] was “competed the binding of CN to GST-LxVPc1” and the “competition of GST-NFATc2 binding to CN” value ([3]; 50 μM peptide, dose-dependent competition, FIG. 5) was “only a partial inhibiting effect”. The “competition of CN binding to GST-NFATc2” value ([3]; 100 μM peptide, FIG. 4B) was “efficiently blocked the interaction of CN with NFATc2”.
